According to patent publication US20220380478A1 (TONIX PHARMA, published 2022):

Tests used:
CD16aF (FcγRIIIaF) [1] = target: T1, CD16aF (FcγRIIIaF) (UniProt P08637 17-208); assay: SPR (Biacore T200); mAb captured on Protein A, FcγR injected; steady-state affinity
Protocol: The analytes were antigens in the FcγR panel (CD16aF, CD16aV, CD32aH, CD32bF; National Research Council, Canada), which were resuspended in PBST containing 3.4 mM EDTA and 0.05% Tween20.

FcγRIA (CD64) [2] = target: T2, FcγRIA (CD64) (UniProt P12314 16-292, limits assumed); assay: SPR (Biacore T200); mAb captured on Protein A, FcγRIA injected
T2 construct: also called FcgRIa; FcγR1A
Protocol: (§1) Specifically, FcγRIA was injected over anti-CD154 antibody pools immobilized onto a Protein A surface (2,000 Rus; Cat #Z02201 […] ®, Piscataway, N.J.), using PBST pH 7.4 (PBS with 0.05% Tween 20) as the running buffer. […] The regeneration was conducted with 1×60s 10 mM glycine pH 1.5, flow 30 μL/min.

CD16aF (FcγRIIIaF) [3] = target: T1, CD16aF (FcγRIIIaF); assay: SPR (Biacore T200), low-affinity FcγR panel
FcγRIA (CD64) [4] = target: T2, FcγRIA (CD64); assay: SPR (Biacore T200), FcγRIA binding
CD32aH (FcγRIIaH) = target: T3, CD32aH (FcγRIIaH) (UniProt P12318 34-217); assay: SPR (Biacore T200), low-affinity FcγR panel
T3 sequence (looked up): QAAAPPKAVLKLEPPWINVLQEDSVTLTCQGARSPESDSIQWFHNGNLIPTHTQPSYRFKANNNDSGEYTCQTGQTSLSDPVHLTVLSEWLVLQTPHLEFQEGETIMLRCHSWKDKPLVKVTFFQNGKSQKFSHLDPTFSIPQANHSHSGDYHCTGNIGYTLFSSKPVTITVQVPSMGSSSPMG

CD16aV (FcγRIIIaV) = CD16aV (FcγRIIIaV) (UniProt P08637 17-208); assay: SPR (Biacore T200), low-affinity FcγR panel
FcγRIA (CD64) [5] = target: T2, FcγRIA (CD64); assay: SPR (Biacore T200), FcγRIA binding; run with TNX06-TNX13
FcγRIA (CD64) [6] = target: T2, FcγRIA (CD64); assay: SPR (Biacore T200); mAb captured on Protein A, FcγRIA injected; run with TNX01-TNX05
Protocol: as §1

FcγRIA (CD64) [7] = target: T2, FcγRIA (CD64); assay: SPR (Biacore T200); mAb captured on Protein A, FcγRIA injected; steady-state end-point analysis
Protocol: as §1

T2 sequence (P12314 16-292 limits assumed): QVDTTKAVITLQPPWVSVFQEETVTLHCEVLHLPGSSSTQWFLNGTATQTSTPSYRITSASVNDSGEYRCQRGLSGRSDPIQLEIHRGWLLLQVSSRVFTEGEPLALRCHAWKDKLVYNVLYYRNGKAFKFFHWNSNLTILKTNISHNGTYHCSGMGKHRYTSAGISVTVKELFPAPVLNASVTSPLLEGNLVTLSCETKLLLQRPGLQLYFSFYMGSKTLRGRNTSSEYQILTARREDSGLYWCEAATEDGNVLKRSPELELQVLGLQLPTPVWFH
Chain of CD16aV (FcγRIIIaV) (P08637 17-208 F176V): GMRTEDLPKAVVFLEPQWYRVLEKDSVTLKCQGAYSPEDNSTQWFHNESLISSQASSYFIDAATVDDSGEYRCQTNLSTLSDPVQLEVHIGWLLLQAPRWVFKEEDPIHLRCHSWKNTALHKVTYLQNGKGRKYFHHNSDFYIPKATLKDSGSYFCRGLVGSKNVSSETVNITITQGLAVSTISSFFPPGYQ
T1 sequence (P08637 17-208): as the sequence (P08637 17-208 F176V) above, with V160F counted along it

B1: TNX05 anti-CD154 monoclonal antibody (antibody, human IgG4 S228P, kappa)
heavy: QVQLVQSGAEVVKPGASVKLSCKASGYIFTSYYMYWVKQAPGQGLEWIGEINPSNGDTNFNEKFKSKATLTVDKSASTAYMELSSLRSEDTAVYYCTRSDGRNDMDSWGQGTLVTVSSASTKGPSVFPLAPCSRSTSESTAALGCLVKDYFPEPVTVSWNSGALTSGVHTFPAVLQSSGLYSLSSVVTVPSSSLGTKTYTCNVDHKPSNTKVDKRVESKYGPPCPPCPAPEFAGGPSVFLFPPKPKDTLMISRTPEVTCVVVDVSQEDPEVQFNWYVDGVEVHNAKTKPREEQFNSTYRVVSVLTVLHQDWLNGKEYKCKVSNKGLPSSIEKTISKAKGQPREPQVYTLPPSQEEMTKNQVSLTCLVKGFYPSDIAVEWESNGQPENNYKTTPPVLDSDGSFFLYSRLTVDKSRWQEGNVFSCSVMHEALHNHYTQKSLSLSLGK
light: DIVLTQSPATLSVSPGERATISCRASQRVSSSTYSYMHWYQQKPGQPPKLLIKYASNLESGVPARFSGSGSGTDFTLTISSVEPEDFATYYCQHSWEIPPTFGGGTKLEIKRTVAAPSVFIFPPSDEQLKSGTASVVCLLNNFYPREAKVQWKVDNALQSGNSQESVTEQDSKDSTYSLSSTLTLSKADYEKHKVYACEVTHQGLSSPVTKSFNRGEC
notes: also called hu5c8 mutated-IgG4 (IgG4 S228P/L235A)
binding result (CD16aF (FcγRIIIaF) [1]): binds | fold loss of activity (against TNX02) (FcγRIA (CD64) [2]): 300 fold

B2: TNX06 anti-CD154 monoclonal antibody (antibody, human IgG4, kappa)
heavy: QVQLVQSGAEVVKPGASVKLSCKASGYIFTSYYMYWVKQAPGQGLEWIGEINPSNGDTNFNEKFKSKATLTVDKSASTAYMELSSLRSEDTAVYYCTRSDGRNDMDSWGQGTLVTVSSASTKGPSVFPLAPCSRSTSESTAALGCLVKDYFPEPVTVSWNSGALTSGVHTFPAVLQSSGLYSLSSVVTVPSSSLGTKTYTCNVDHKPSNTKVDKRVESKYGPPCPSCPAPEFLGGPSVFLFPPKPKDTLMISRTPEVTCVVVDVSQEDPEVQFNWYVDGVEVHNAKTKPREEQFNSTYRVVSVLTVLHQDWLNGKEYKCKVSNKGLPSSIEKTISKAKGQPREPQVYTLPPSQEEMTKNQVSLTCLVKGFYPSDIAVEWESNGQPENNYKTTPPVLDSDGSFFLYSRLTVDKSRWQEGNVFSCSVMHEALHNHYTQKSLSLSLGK
light: B1 light
notes: also called IgG4 Wild Type
binding result (CD16aF (FcγRIIIaF) [3]): binds | binding result (FcγRIA (CD64) [4]): binds

B3: TNX08 anti-CD154 monoclonal antibody (antibody, human IgG4 S228P, kappa)
heavy: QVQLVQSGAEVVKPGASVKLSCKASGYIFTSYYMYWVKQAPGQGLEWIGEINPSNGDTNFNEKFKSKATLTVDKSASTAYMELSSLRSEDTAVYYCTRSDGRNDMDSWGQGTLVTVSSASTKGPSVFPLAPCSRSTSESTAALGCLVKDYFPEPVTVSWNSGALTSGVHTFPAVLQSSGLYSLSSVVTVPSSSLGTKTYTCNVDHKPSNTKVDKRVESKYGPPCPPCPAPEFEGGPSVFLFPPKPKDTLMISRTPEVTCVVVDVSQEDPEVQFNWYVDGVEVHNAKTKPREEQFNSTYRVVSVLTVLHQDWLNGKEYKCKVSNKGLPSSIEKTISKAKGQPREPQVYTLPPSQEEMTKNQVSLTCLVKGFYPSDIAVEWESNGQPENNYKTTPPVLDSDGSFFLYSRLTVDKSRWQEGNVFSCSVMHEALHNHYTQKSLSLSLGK
light: B1 light
notes: also called IgG4 (S228P, L235E)
binding result (CD16aF (FcγRIIIaF) [3]): binds | fold weaker binding than TNX02 (FcγRIA (CD64) [4]): 2600 fold

B4: TNX09 anti-CD154 monoclonal antibody (antibody, human IgG4 S228P, kappa, F234A L235A)
heavy: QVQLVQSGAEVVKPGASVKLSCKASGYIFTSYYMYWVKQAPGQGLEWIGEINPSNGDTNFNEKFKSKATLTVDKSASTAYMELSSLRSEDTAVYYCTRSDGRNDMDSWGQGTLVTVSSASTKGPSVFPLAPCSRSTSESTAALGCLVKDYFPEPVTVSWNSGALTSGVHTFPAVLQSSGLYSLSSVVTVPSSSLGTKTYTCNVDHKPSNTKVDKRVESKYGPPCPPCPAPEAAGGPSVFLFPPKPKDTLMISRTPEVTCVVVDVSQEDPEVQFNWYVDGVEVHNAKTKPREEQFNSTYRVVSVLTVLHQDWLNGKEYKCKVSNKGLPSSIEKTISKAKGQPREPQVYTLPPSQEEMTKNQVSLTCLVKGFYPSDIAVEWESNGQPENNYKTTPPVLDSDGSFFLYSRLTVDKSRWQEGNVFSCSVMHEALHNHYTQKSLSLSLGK
light: B1 light
notes: also called IgG4 (S228P, F234A, L235A)
binding result (CD32aH (FcγRIIaH)): no binding | binding result (CD16aF (FcγRIIIaF) [3]): no binding | fold loss (against TNX02) (CD16aV (FcγRIIIaV)): ~12 fold | fold weaker binding than TNX02 (FcγRIA (CD64) [4]): 3800 fold

B5: TNX02 anti-CD154 monoclonal antibody (antibody, human IgG1, kappa)
heavy: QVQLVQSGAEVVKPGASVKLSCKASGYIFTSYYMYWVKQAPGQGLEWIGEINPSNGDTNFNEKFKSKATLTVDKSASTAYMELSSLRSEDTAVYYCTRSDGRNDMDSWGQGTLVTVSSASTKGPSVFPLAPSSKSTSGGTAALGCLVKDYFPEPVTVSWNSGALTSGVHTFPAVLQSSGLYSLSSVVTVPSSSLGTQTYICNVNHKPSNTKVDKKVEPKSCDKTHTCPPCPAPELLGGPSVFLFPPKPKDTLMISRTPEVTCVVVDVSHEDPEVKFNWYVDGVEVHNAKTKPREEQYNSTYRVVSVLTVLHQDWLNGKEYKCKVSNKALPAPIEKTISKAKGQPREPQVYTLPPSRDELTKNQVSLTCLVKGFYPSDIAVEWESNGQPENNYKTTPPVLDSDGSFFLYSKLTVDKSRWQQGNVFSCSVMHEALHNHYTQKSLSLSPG
light: B1 light
notes: also called IgG1 (wildtype)
Kd (FcγRIA (CD64) [5]): ~0.04 nM | Kd (FcγRIA (CD64) [6]): ~0.03 nM | binding result (CD16aF (FcγRIIIaF) [1]): binds

B6: TNX01 anti-CD154 monoclonal antibody (antibody, human IgG1, kappa, N297Q)
heavy: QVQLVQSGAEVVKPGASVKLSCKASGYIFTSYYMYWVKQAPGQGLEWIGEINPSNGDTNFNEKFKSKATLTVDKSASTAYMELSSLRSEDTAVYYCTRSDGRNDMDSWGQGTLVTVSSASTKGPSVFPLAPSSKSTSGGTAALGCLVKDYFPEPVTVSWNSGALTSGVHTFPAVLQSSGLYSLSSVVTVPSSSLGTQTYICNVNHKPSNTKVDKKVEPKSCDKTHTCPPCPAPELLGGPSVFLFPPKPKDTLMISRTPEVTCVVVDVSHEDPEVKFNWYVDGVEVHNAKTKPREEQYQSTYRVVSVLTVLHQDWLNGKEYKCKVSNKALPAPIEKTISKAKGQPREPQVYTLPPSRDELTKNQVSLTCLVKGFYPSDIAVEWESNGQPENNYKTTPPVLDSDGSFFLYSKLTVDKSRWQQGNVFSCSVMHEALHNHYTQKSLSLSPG
light: B1 light
notes: also called IgG1 (N297Q)
fold loss of activity (against TNX02) (FcγRIA (CD64) [7]): 3000 fold

B7: TNX03 anti-CD154 monoclonal antibody (antibody, human IgG1, kappa, N297G)
heavy: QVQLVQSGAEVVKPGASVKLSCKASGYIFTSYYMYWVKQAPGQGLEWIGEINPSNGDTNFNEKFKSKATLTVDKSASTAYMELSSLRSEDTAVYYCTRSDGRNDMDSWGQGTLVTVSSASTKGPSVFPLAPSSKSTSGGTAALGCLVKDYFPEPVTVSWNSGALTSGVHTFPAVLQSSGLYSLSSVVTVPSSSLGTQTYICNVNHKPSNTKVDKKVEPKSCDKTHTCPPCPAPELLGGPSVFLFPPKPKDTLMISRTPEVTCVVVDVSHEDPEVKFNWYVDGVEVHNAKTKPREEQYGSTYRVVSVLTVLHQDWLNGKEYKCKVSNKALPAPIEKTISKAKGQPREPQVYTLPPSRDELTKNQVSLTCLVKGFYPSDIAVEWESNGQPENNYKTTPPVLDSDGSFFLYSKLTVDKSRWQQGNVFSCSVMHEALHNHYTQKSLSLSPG
light: B1 light
notes: also called IgG1 (N297G)
fold loss of activity (against TNX02) (FcγRIA (CD64) [7]): 3000 fold

B8: TNX04 anti-CD154 monoclonal antibody (antibody)
heavy: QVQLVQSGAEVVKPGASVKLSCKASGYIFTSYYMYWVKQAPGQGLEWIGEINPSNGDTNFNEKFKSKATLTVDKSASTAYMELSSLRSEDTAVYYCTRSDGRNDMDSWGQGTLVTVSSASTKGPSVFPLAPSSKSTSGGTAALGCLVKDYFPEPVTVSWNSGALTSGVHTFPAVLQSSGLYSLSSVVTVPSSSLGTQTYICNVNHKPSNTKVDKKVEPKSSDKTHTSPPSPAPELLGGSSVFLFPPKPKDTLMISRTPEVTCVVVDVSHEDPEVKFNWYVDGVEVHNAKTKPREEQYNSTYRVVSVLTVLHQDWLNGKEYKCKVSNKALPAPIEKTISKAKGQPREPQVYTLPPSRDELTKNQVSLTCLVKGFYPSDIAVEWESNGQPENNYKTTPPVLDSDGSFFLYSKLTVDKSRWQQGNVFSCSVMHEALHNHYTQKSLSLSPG
light: B1 light
notes: also called IgG1 (C220S, C226S, C229S, P238S)
binding result (CD16aF (FcγRIIIaF) [1]): no binding (tested: 12 µM to 0.062 µM) | fold loss of activity (against TNX02) (FcγRIA (CD64) [2]): 11 fold

B9: TNX10 anti-CD154 monoclonal antibody (antibody, human IgG1, kappa, L234A L235A)
heavy: not shown
light: B1 light
notes: also called IgG1 (L234A, L235A)
binding result (CD32aH (FcγRIIaH)): no binding | binding result (CD16aF (FcγRIIIaF) [3]): no binding | fold loss (against TNX02) (CD16aV (FcγRIIIaV)): ~12 fold | fold weaker binding than TNX02 (FcγRIA (CD64) [4]): 1800 fold

B10: TNX11 anti-CD154 monoclonal antibody (antibody, human IgG1, kappa)
heavy: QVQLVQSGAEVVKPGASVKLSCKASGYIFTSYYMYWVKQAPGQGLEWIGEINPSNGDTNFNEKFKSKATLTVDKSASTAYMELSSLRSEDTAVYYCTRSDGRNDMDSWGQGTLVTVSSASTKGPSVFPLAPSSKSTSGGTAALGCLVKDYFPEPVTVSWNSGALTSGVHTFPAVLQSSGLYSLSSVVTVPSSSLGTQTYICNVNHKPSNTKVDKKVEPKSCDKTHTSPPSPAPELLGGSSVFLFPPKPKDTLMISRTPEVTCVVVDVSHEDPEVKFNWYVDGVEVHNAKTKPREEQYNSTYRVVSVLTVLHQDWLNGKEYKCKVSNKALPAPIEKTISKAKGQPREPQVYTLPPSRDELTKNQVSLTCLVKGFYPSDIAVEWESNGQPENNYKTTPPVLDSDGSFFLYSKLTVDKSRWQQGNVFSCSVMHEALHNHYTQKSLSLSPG
light: B1 light
notes: also called IgG1 (C226S, C229S, P238S)
binding result (FcγRIA (CD64) [4]): binds

B11: TNX12 anti-CD154 monoclonal antibody (antibody, human IgG1, kappa)
heavy: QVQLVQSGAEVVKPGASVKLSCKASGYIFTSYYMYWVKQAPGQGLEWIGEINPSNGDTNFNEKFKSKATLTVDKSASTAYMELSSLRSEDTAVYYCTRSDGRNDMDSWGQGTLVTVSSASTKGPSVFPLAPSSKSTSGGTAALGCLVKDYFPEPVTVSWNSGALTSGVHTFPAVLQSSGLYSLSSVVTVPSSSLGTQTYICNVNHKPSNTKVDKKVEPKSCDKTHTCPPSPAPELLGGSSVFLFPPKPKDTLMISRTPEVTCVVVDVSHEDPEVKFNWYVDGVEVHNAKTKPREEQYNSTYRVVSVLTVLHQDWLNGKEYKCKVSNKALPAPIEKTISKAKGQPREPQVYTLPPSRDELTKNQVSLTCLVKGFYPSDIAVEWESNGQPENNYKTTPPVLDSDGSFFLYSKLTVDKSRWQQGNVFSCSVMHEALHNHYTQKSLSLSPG
light: B1 light
notes: also called IgG1 (C229S, P238S)
binding result (CD32aH (FcγRIIaH)): no binding | binding result (CD16aF (FcγRIIIaF) [3]): no binding | binding result (CD16aV (FcγRIIIaV)): no binding | binding result (FcγRIA (CD64) [4]): binds

B12: TNX13 anti-CD154 monoclonal antibody (antibody, human IgG1, kappa)
heavy: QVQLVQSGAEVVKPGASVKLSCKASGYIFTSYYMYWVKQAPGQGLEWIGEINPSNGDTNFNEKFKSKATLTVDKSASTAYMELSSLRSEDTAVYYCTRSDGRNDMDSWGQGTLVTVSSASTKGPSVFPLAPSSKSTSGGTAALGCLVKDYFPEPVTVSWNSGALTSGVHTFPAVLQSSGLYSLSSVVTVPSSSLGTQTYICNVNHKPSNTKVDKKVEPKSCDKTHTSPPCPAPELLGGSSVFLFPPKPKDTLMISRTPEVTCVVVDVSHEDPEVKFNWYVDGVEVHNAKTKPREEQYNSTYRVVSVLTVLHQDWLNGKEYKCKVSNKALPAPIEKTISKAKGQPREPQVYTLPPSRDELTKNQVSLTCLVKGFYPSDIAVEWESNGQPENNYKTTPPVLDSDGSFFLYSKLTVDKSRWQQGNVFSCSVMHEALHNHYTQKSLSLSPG
light: B1 light
notes: also called IgG1 (C226S, P238S)
fold loss of binding activity (against TNX02) (CD32aH (FcγRIIaH)): 17 fold | binding result (CD16aF (FcγRIIIaF) [3]): no binding | binding result (CD16aV (FcγRIIIaV)): no binding | binding result (FcγRIA (CD64) [4]): binds
